# In US5821118:
# What was measured:
# [1] = molecular target: bovine brain farnesyl-protein transferase (bovine) (UniProt P29702)
# [2] = molecular target: human farnesyl-protein transferase, recombinant, expressed in E. coli from pRD516 with a C-terminal Glu-Glu-Phe epitope tag on the β subunit (human)
"IC50 value (nM), inhibition of farnesylation of Ras protein [1] [nM]","IC50 value (nM), inhibition of farnesylation of Ras protein [2] [nM]",Substance
100,100,tetrapeptide CVIM (cysteinylvalinyl-isolleucinyl-methionine)
10,17,tetrapeptide CIFM (cysteinylisolleucinyl-phenylalaninyl-methionine)
20000,6200,tetrapeptide CVIL (cysteinylvalinyl-isolleucinyl-leucine)
